Experimental data taken from doi:10.1101/2022.01.26.477937 (bioRxiv, 2022).

B1: NCV2SG53 monoclonal antibody (human IgG) (antibody, V domains shown)
VH: QVQMVESGGGLVRPGGSLRLSCAASGFTFSDYYMSWIRQAPGKGLEWISYISSSGSSMNYADSVKGRFTISRDNAKNSLFLQMNSLRAEDTAVYYCAREFDLTKIIMVPPYWGQGTLVTVSS
VL: AIQLTQSPSSLSASVGDRVTITCRASQGISSYLAWYQQKPGKAPKVLIYAASTLQSGVPSRFSGSGSGTDFTLTISSLQPEDFATYYCQQLKSYPLTFGGGTKVEIT
B2: Fab fragment of NCV2SG53 (Fab, V domains shown)
VH: QVQMVESGGGLVRPGGSLRLSCAASGFTFSDYYMSWIRQAPGKGLEWISYISSSGSSMNYADSVKGRFTISRDNAKNSLFLQMNSLRAEDTAVYYCAREFDLTKIIMVPPYWGQGTLVTVSS
VL: AIQLTQSPSSLSASVGDRVTITCRASQGISSYLAWYQQKPGKAPKVLIYAASTLQSGVPSRFSGSGSGTDFTLTISSLQPEDFATYYCQQLKSYPLTFGGGTKVEIT
B3: Fab fragment from NCV2SG48 (Fab, V domains shown)
VH: EVQLVESGGGLIQPGGSLRLSCAASGFIVSRNYMNWVRQAPGKGLEWVALIYSGGSTFYADSVKGRFTISRDNSKNTLYLQMNSLRAEDTAVYYCARDLVVYGLDYWGQGTLVTVSS
VL: AIQLTQSPSSLSASVGDRVTITCRASQGISSHLAWYQQKPGKAPKLLIFAASTLQSGVPSRFSGSGSGTDFTLTISSLQPEDFATYYCQHLNSNPPITFGQGTRLEIK
B4: NCV2SG48 monoclonal antibody (human IgG) (antibody, V domains shown)
VH: EVQLVESGGGLIQPGGSLRLSCAASGFIVSRNYMNWVRQAPGKGLEWVALIYSGGSTFYADSVKGRFTISRDNSKNTLYLQMNSLRAEDTAVYYCARDLVVYGLDYWGQGTLVTVSS
VL: AIQLTQSPSSLSASVGDRVTITCRASQGISSHLAWYQQKPGKAPKLLIFAASTLQSGVPSRFSGSGSGTDFTLTISSLQPEDFATYYCQHLNSNPPITFGQGTRLEIK

Key:
[1] = target: T1, SARS-CoV-2 Wuhan-Hu-1 spike receptor-binding domain (RBD) (SARS-CoV-2 Wuhan-Hu-1, UniProt P0DTC2); test: ELISA
[2] = target: T1, SARS-CoV-2 Wuhan-Hu-1 spike …; test: crystal structure
[3] = target: T1, SARS-CoV-2 Wuhan-Hu-1 spike …; test: BLI

Binder | binding result [2] | also measured
B1 |  | binding result [1]: binds
B2 | binds | 
B3 | binds | 
B4 |  | binding result [3]: binds
